Assay results as given in PMC7642358 (2020).

Experiments:
[1] = biological target: T1, SARS-CoV-2 spike receptor-binding domain (2019-nCoV RBD-SD1, residues 319–566) (SARS-CoV-2, UniProt P0DTC2 319-566, chemically biotinylated with NHS-PEG4-Biotin for selection, ELISA and BLI); assay: BLI
[2] = biological target: T1, SARS-CoV-2 spike receptor-binding …; assay: BLI; remark: listed apart in the source

B1: Sb23-Fc (Sb23 fused to the Fc domain from human IgG) (Fc fusion)
chain: QVQLVESGGGLVQAGGSLRLSCAASGFPVESENMHWYRQAPGKEREWVAAIYSTGGWTLYADSVKGRFTISRDNAKNTVYLQMNSLKPEDTAVYYCAVQVGYWYEGQGTQVTVS
Question: For B1, which koff [1] is on record?
Answer: 7.1e-05 s⁻¹

Question: And the Kd [2]?
Answer: 0.225 nM
